Results from paper PMC9270183 (The Journal of Experimental Medicine, 2022).
Residue numbers refer to the chain shown, from its start.

B1: V003 (antibody, V domains shown)
VH: EVQLVQSGAEVKKPGESLKISCLGSGYSFTSYWIGWVRQMPGKGLEWMGIIFPADSDTRYSPSFQGQVIISADKSISTAYLQWSSLKASDTAMYYCARLREFGDYYYYGMDVWGQGTTVTVSS
VL: DIQLTQSPSSLSASVGDRVTITCRASQGISSYLAWYQQKPGKAPKLLIYAASTLQSGVPSRFSGSGSGTDFTLTISSLQPEDFATYYCQQLNSYPDFGQGTKLEIK
notes: IgG; donor BRA13; source: recombinant monoclonal IgG, produced and purified as previously described
B2: V032 (antibody, V domains shown)
VH: QVQLVESGGGVVQPGRSLRLSCAASGFTFSSYGMHWVRQAPGKGLEWVAVISYDGSNKYYADSVKGRFTISRDNSKNTLYLQMNSLRAEDTAVYYCAKVSGPYCSSTSCYTGYWDYWGQGTLVTVSS
VL: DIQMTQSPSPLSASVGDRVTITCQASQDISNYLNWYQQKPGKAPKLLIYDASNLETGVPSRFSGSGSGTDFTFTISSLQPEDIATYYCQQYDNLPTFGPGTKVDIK
notes: IgG; donor BRA14; source: recombinant monoclonal IgG, produced and purified as previously described
B3: V033 (antibody, V domains shown)
VH: QVQLVQSGAEVKKPGASVKVSCKASGYTFTSYGISWVRQAPGQGLEWMGWISAYNGNTNYAQKLQGRVTMTTDTSTSTAYMELRSLRSDDTAVYYCARGRFCSSTSCYRAAPNYYYYYMDVWGKGTTVTVSS
VL: NFMLTQPHSVSESPGKTVTISCTRSSGSIASNYVQWYQQRPGSAPTTVIYEDNQRPSGVPDRFSGSIDSSSNSASLTISGLKTEDEADYYCQSYDSSNPYWVFGGGTKLTVL
notes: as for B2
B4: V037 (antibody, V domains shown)
VH: EVQLVESGGGLVQPGGSLRLSCAASEVIVSSNYMSWVRQAPGKGLEWVSVLYSGGSTFYADSVKGRFTISRDNSKNTLYLQMNSLRAEDTAVYYCARDLGPMGAFDIWGQGTMVTVSS
VL: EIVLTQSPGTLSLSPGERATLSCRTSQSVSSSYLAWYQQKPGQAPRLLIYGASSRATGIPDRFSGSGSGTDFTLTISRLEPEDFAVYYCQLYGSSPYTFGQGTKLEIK
notes: IgG; donor BRA15; source: recombinant monoclonal IgG, produced and purified as previously described
B5: V038 (antibody, V domains shown)
VH: QVQLVQSGAEVKKPGASVKVSCKASGYTFTGYYVHWVRQAPGQGLEWMGWINPNSGGTNFAQRFQGRVTMTRDTSISTAYMELSRLRSDDTAVYYCARGITVYGVAPDAFDIWGQGTMVTVSS
VL: DIQMTQSPSSLSASVGDRVTITCQASQDISNYLNWYQQKPGKAPKVLIYDASNLEPGVPSRFSGSGSGTDFTFTISSLQPEDIATYYCQQYDNLITFGQGTRLEIK
notes: as for B4
B6: V039 (antibody, V domains shown)
VH: QVQLQESGPGLVKPSQTLSLTCTVSGGSISSGSYYWSWIRQPAGKGLEWIGRIYTSGSTNYNPSLKSRVTISVDTSKNQFSLKLSSVTAADTAVYYCARADYSDYDNYYFDYWGQGTLVTVSS
VL: B3 VL with T19A, Q35H, A44S, E51D, P99H, Y100N
notes: as for B4
B7: V042 (antibody, V domains shown)
VH: QLQLQESGPGLVKPSETLSLTCTVSGGSISSSTNYWGWIRQPPGKGLEWIGSIDYSGSTYYNPSLKSRVTMSVDTSKNQFSLKLSSVTATDTAMYYCARHVIDDSRGYYPAALDHWSQGTLVTVSS
VL: EIVLTQSPATLSLSPGERATLSCRASQSVNNYLAWYQQKPGQAPRLLIYDASNRATGVPARFSGSGSGTDFTLTISSLEPEDFAVYFCQQRSNWPPMYTFGQGTKLEIK
notes: as for B4
B8: V043 (antibody, V domains shown)
VH: QLQLQESGPGLVKPSETLSLTCTVSGGSISSNNYYWGWIRQPPGKGLECIGTIYYSGNTYYNPSLKSRVTISVDTSKNQFSLKLGSVTAADTAVYYCARQQWLRDAFHIWGQGTMVTVSS
VL: NFMLTQPHSVSESPGKTVTISCTGSSGSIASNYVQWYQQRPGSAPTIVIYEDNQRPSGVPDRFSGSIDSSSNSASLTISGLKTEDEADYYCQSYDSNIHVVFGGGTKLTVL
notes: as for B4
B9: V044 (antibody, V domains shown)
VH: QVQLVQSGAEVKKPGASVKVSCKASGYTFTSYDINWVRQATGQGLEWMGWMNPNSGYAGYTQKFQGRITMTRNTSISTAYMELSSLRSEDTAVYFCARISSPTRLDPWGQGTLVTVSS
VL: NFMLTQPHSVSESPGKTVTISCSRSRGSIASSFVQWYQQRPGSSPTTVIYDDNQRPSGVPDRFSGSIDSSSNSASLTISGLKTEDEADYYCQSYDSISWVFGGGTKLTVL
notes: as for B4
B10: V045 (antibody, V domains shown)
VH: QVQLVQSGAEVKKPGASVKVSCKASTYTFTSYYIHWVRQAPGQGLEWMGIINPSGGSTSYAQNFQGRVTMTRDTSTSTVYMELSSLRSEDTAVYYCARGVLIPAAGGDFDYWGQGTLVTVSS
VL: QSALTQPRSVSGSPGQSVTISCTGTSSDVGGYKYVSWYQQHPGKAPKLMIYDVSKRPSGVPDRFSGSKSGNTASLTISGLQAEDEADYYCCSYAGSYSWVFGGGTKLTVL
notes: as for B4
B11: V004 (antibody, V domains shown)
VH: QVQLQESGPGLVKPSQTLSLTCTVSGGSISSGSYYWSWIRQPAGKGLEWIGRIYTSGSTNYNPSLKSRVTISVDTSKNQFSLKLSSVTAADTAVYYCARDTTDDYYVIWGQGTLVTVSS
VL: DIQMTQSPSTLSASVGDRVTITCRASQSIRSWLAWYQQKPGKAPKLLIYDASSLESGVPSRFSGSGSGTEFTLTISSLQPDDFATYYCQQYNTHFRTFGQGTKVEIK
notes: as for B1
B12: V046 (antibody, V domains shown)
VH: EVQLVESGGGLVQPGRSLRLSCAASGFTFEDYAMHWVRQAPGKGLEWVSGVSWNSGTIGYADSVKGRFIISRDNAKNSLYLQMNSLRAEDTALYYCANLGPTYYDFSRPTPMDVWGKGTTVTVSS
VL: QSALTQPASVSGSPGQSITISCTGTSSDVGGYNYVSWYQQHPGKAPKLIIYDVSNRPSGVSNRFSGSKSGNTASLTISGLQAEDEADYYCSSYTSSSTWVFGGGTKLTVL
notes: as for B4
B13: V048 (antibody, V domains shown)
VH: QVQLVQSGAEVKKPGASVKVSCKASGYTFTSYVISWVRQAPGQGLEWMGWISAYNGNTNYAQKLQGRVTMTTDTSTSTAYMELRSLRSDDTAVYYCARDVAGITMIVEEVIDAFDIWGQGTMVTVSS
VL: SYELTQPSSVSVSPGQTARITCSGDVLAKKYARWFQQKPGQAPVLVIYKDSERPSGIPERFSGSSSGTTVTLTISGAQVEDEADYYCFSAPDNNRVFGGGTKLTVL
notes: as for B4
B14: V049 (antibody, V domains shown)
VH: QVQLVESGGGVVQPGRSLRLSCAASRFPFSNYGMHWVRQAPGKGLEWVAVISFDGNNKYYGDSVKGRLTISRDNSKNTLYLQVKSLRPEDTAVYYCAKDISTGLSLALFRSPDGEGMDVWGQGTTVTVSS
VL: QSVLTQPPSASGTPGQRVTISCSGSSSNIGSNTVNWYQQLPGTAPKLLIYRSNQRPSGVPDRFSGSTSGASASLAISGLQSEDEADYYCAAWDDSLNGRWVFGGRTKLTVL
notes: as for B4
B15: V050 (antibody, V domains shown)
VH: EVQLVESGGGLVKPGGSLRLSCAASGFSFSNAWMSWVRQAPGKGLEWVGRIKSKTDGGTTDYAAPVKGRFTISRDDSQNTLYLQMNSLKTEDTAVYYCITDRFRVHIRGYYGQGTLVTVSS
VL: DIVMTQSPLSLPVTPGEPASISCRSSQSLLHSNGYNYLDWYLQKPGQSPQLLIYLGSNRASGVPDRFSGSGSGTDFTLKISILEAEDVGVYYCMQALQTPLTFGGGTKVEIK
notes: as for B4
B16: V051 (antibody, V domains shown)
VH: QVQLVESGGGVVQPGRSLRLSCEASGFTFSTYAMHWVRQAPGKGLEWVAVISYDGNNKYYADSVKGRLTVSRDNSKNTLYLQMNSLRAEDTAEYYCARDDGGYCSSLSCPMDVWGQGTTVTVSS
VL: SYELTQPPSVSVAPGKTARITCGGNSIGSKSVHWYQQRPGQAPVLVIYYDSDRPSGIPERFSGSNSGNTATLTISRVEAGDEADYYCQVWDSTLVFGGGTKLTVL
notes: as for B4
B17: V053 (antibody, V domains shown)
VH: QVQLVQSGAEVKKPGASVKVSCKASGYTFTSYYMHWVRQAPGQGLEWMGIINPSAGSTTYAQKFQGRVTMTSDTSTSTVYMELSSLKSEDTAVYYCARDFVLVPASYGMDVWGQGTTVTVSS
VL: QSVLTQPASVSGSPGQSITISCTGTSSDVGSYNLVSWFQQHPGKAPKLMIYQVSKRPSGASNRFSGSKSGNTASLTISGLQAEDEADYYCCSYAGSSTVWVFGGGTKLTVL
notes: as for B4
B18: V054 (antibody, V domains shown)
VH: QVQLVESGGGVVQPGRSLRLSCAASGFPFSSFGMHWVRQAPGKGLEWVAVISSDGSNKYYADSVKGRFTISRDNSKNTLYLQMNSLRAEDTAVYYCAKEFTYVVVTALWGTENFDIWGQGTMVTVSS
VL: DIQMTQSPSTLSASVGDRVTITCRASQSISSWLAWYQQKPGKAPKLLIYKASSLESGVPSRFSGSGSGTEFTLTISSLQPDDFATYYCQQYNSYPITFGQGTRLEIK
notes: as for B4
B19: V055 (antibody, V domains shown)
VH: QVQLVQSGAEVKKPGSSVKVSCKASGGTFSSYIINWVRQAPGQGLEWMGRIIPILGIANYAQKFHGRVTITADESTSTAYMELSSLRSEDTAVYYCARGGPDPSDSNYAALLYYYYMDVWGKGTTVTVSS
VL: QSVLTQPPSVSAAPGQKVTISCSGSSSNIGSYYVSWYQKLPGTAPKLLIHENNKRPSGIPDRISGSKSGTSATLGITGLQTGDEADYYCGTWDSSLSDVVFGGGTKLTVL
notes: as for B4
B20: V056 (antibody, V domains shown)
VH: QVQLVESGGGVVQPGRSLRLSCAASGFPFSNYGMHWVRQAPGKGLEWVAVISYDGSNKYYADSVKGRFTISRDNSKNTLYLQMNSLRAEDTALYYCAKDSRPLPAAMSTYYYYGVDVWGQGTTVTVSS
VL: not shown
notes: as for B4
B21: V007 (antibody, V domains shown)
VH: QVQLVQSGAEVKKPGSSVKVSCKASGDTFSTYTISWVRQAPGQGLEWMGRIIPILGVGNYAQKFQGRVTITADKSTSTAYMELSSLRSEDTAVYYCAHTTPPGDAFDIWGQGTMVTVSS
VL: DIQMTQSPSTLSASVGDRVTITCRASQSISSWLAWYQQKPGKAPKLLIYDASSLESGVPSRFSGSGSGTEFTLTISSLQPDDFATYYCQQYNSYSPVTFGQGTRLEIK
notes: as for B1
B22: V057 (antibody, V domains shown)
VH: EVQLVESGGGLVQPGRSLRLSCAASGFTFGDYAMHWVRQAPGKGLEWVSGISWNSGIIGQADSVKGRFTISRDNAKNSLYLQMNSLRVEDTALYYCAKGGGESVEVPADEKLDYWGQGTLVTVSS
VL: QSVLTQPPSVSGAPGQRVTISCTGSSSNIGAGYDVHWYQQLPGTAPKLLIYGNNNRPSGVPDRFSGSKSGTSASLAITGLQAEDEADYYCQSYDSSLSGSWVFGGGTKLTVL
notes: as for B4
B23: V060 (antibody, V domains shown)
VH: B20 VH with Q39R, S56L, S85R, L93V, L103V, A105G, V115M
VL: not shown
notes: as for B4
B24: V061 (antibody, V domains shown)
VH: QVQLVQSGAEVKKPGTSVKVSCKASGYTFKNYGISWVRQAPGQGLEWMGWISAHNGNTNYAQRVQGRVTMTTDTSTSTAYMELRSLRSEDTAVYYCGRESGVASHPGDLDYWGQGTLVTVSS
VL: SYELTQPPSVSVSPGQTARITCSGDALPRQYAYWYQQKPGQAPVLLIYKDSERPSGIPERFSGSSSGTTVTLTISGVQAEDEADYYCQSADSSVVFGGGAKLTVL
notes: as for B4

Target: T1, 417N/484K/501Y RBD mutant (SARS-CoV-2, Wuhan-Hu-1 RBD backbone …, 417N | 484K | 501Y)
T1 construct: also called RBD KEN
Assay: BLI
Conditions: both partners purified

Binder | Kd [nM]
B1 | 139
B2 | 27.3
B3 | 10.7
B4 | 0.241
B5 | 2.37
B6 | 0.542
B7 | 23.3
B8 | 4.02
B9 | 3.66
B10 | 2.79
B11 | 2.92
B12 | 2.85
B13 | 6.26
B14 | 20.6
B15 | 66.7
B16 | 7.05
B17 | 2.49
B18 | 15.6
B19 | 1.99
B20 | 7.58
B21 | 5.78
B22 | 22
B23 | 4.79
B24 | 10.3
